Results from the DeepSol protein solubility set.

Assay: soluble on expression in E. coli; label from the status in PepcDB or PDB records

Sequence | soluble on expression in E. coli
MGYAVLHLEKAKGTDSRMSAHIERTVHPKNADRTRTHLNRELVQFPEGVRNRTQAIAQRIETAGIRRKVSANQVKAIRILLTGSNKDMKQMEAEGRIEDWCNDSLKWIRETYGEQNLVSAVLHMDEKTPHIHATVIPIMTGERRKAGQEEQNGKKKYRKKNPQDVRLCADDVMARHRLKHYQDTYAQAMNKYGLQRGVDGSLAKHISTMQYYKQLVEQQDSLQENIENLLGLEEEAMKKLKQVKGEINVQKMKGAAVNATTAIADGVSSLFGGSKVKRLEAENENLKRNIVNLQKQVQAEQREQTKMENRHSSEINRVDRSYRQKIAEYDNRLELIDTYFPIVKELIPIAEQCREVGFTEELTRRIVSLQPVEFKGRLYSKEYKEKFRTEHSTATVERTPQEKGKFRLCIDGIPILDWFRKKFQEIKEKLGLNTPVENKQRKGLKILEHHHHHH | not soluble
MSLKLVGIIGSIADESYNRKLMLYIASHFKETIDIEILDIRDVPMFRVGMEMGPAVEYLNKKISAADGVIIATPEHNHTTTAALKSVIEWLSSSVHPFADKPVLLVGASYFEQGSGRAQLDLRQILESPGVNALVMPKDEFLLGNVKSAFDENGNLKEARTVGFLESVMGNFLKWIKVLKAMKKNNDVKGDWESEDLTASQEIDTTVKGVDMKAEDWVEQAAAKTNAVEGDTYVKLDRGLLTVNQLNWFLNTMPVELTFADDNNQFIYYNRMDENPKDMLAPRQPKQVGDPLESVHPERALKGVKHVVHTLRTGETDLVSMPVPFINKVNEKHVMHYYKAMHDEDGRYRGINEWVVDIWPVVESYLKMTGQKLVADENAKVDEGHHHHHH | soluble
MPSKKKKIVVIGRSNLQNLYIHTILLKKLPAEIYLIDEQAKTSVQDFEYASYYHSSATVNTGTFNECRSADLVLFFQEEMSNESFSNEDNLALIKEKVKKMMATGFQGIVLVATAESNIVASLIKHFSGLPANQIITPGTMLATSYFQVEIAKLFKISPKNVHGYIIGESTQDVIPVWSRAFLGGKPILSYLAEEQKRITSDDLQNLTNMITKIPDFPVETKDGCSFRFSTVTVLAELTEVILRDEARVLTVGVEVKEAYGLERPVFVSVPAVVGAEGVRELLELNLSDDEQKELKRITTKTTEKLGLLHNKGGIS | not soluble
MSLNDGRLEIFQEGKPGRRIDEDQVFAAVLDALTKPAEQRTVTVAFREIPPPITAANLDQLGITTLIGVGRSDFTGSAAYRVTNIQAGMRLLHGVLIAPGEEFSFNQTIGRIDRSNGFVEGYAIIQNRTQLEWGGGICQDSTTMFRAAFWAGLPITERWGHSFYISWYDRYAFGPYGDGPGMDATIFTGGPDLKFLNDTGGWLLIQTLVDTHRHLAEVRLYGPDTGRKVLLEGPIITNRTPPPEEPVYVASPDRPVGQPRQSDTARGGMDILFTRIVLGPDGKEIERRQFVTRFKPWPNIFEYNPADEGHHHHHH | soluble
GMRGLIVDYAGVLDGTDEDQRRWRNLLAAAKKNGVGTVILSNDPGGLGAAPIRELETNGVVDKVLLSGELGVEKPEEAAFQAAADAIDLPMRDCVLVDDSILNVRGAVEAGLVGVYYQQFDRAVVEIVGLFGLEGEF | soluble
MGLQFAYLPVEIGQVSDEKCSAFHQLMATLPGPVLAFCNSGNRARALYSRDVGTTTTPAETISAACDWEHEAAAVTEAESEAAGAAAVSAASSRDEAAGKSIPVTPACNWDNAFDIVVVGGGSAGLGVTASLLRRRSSLRIAIIEPNDKHYYQPAWTLVGGGAYAVDQTVRNTADVIPHGAEWIKAEVSGFSPNDNLVHLADGRTIGYQQLIVCPGIRLAWEKIEGIQETLGKNGVTSNYLFDLAPYTWSLTQQLKGGKALFTQPPMPIKCAGAPQKAMYLSCDYWQRQGVLDKIEVEFDSAGAVLFGVADFVPPLMEYVRKYHANLVFNSNLVKVNGPEKIATFEIKNEAGEVTRVDKPFDMLHVTPPQAAPDFLRDSPLADASGYCEVNPKTLQHTRFANIFSLGDACSSPNTKTAAAVRKQIVIVAENLLAAKDGREFHAVYDGYGACPLTVENGKVVLAEFGFGGKLLPTFPLNPAVARKLYWWFKVKLFPWLYWEGLEHHHHHH | not soluble
MGSDKIHHHHHHMNQSNCIVAQSGGPTVAINASLAGVIAGVKSSEKYDICYGAVNGILGILNENYLNLSDIFADDANLEKLKTTPAMYLGSCRHKLPDYKDDDSPYVYIFHQFDKLSIKAFFYIGGNDSMDTVLKLSDYAKKINSDVKIIGIPKTIDNDLCMTDHTPGFGSAAKYIASSMLEIAHDTFIYAVKSVTIVEIMGRDAGWLTAASALARNEYNTAPQFIYLPEVNFDKDKFVADIKEALAHTNNVIVAVSEGIHDADGSYITSSKAACDQFGHQQLSGAGKALEFIVKENIGVKVRSVEVNVLQRCASHLASLTDIEESFAQGKKGVTIAAEGVTASMVCLKRISNKPYQVEYTYSAIKDIANEAKSVPREWINDAGNDVKPELIEYLKPLIQGETAVAYKNGLPDYMDVSHLHKCN | not soluble
MGSDKIHHHHHHENLYFQGMLYHLVMLEPEGEGAMDRIMEAMAILDGLAPELPGLTEFRHGPNRDFEQKSERYPYGFLCTFTDKAALDAYAVHPTHQRAGGMLVASCRNGADGILVVDLEV | soluble
MTEEFNESMINDIKEGDKVTGEVQQVEDKQVVVHINGGKFNGIIPISQLSTHHIENPSEVVKQGDEIEAYVTKIEVDEENDSGVYILSKRQLETEKSYEYLQEKLDNDEIIEAKVTEVVKGGLVVDVGQRGFVPASLISTDFIEDFSVFDGQTIRIKVEELDPENNRVILSRKAVEQAENDVKKASLLESLNAGDVIKGKVARLTNFGAFVDIGGVDGLVHVSELSHEHVDSPEDVVSVGQEVDVKVKSVEKDAERISLSIKDTLPTPFESIKGQFHEDDVIEGKVVRLANFGAFVEIAPGVQGLVHISEIAHEHIGTPGEKLEPGQQVNVKILGIDEENERISLSIKATLPKEDVVESDDATTQSYLSNDSIEDNPTLGDVFGDKFKDLKF | soluble
MLDKVIYSLLRTQDPGLAQELYFRLQAKEQSFAEVAQKYSQGPESQTGGLVGPVEQSSLHPAMVQLLSSCQPGQISPPTRITELEHHHHHH | not soluble
MEFFFFIDVYADRELVDYYIVTFKLDDLSSVELTGSQGKYYIRGIRDWEKFKEEAYDITLYELGDEVDRFKDIETALREAYRIAIGEAVRRGAKNIVPAIGFGNPPPEVVERVYPEELKFEKFPEDLDAFLDRIVKEVSLETTERSKDDDEIPF | soluble
MPFILRRERSILKTALPPIRDDAVLCPLLPFQSAQLKEVERKHHAGTLSGNPHIQYRKILLHPHTTQSFLHVDEEVVCTSGKLLVLDFVMRFLQRTQHKLLVVCGWTLILDIVETLCGMRGIPYVRLDGRTMVKQREANIRGFNRSVANGNGVVEEAGGGGGDAEGDAATSRPRRNSRQRASTDTTGGPSPNADGRGDEEDGSSLPLATPCCFLISKVAGGAGLNLQAADTVFLLDVDYNPQRDAQALSRVYRVGQSKEVRVFRLIIDHAIEHDIVAIHEAKDDLGRAVVQAGCYDLHSSAHEREAALQGIFRAGALSRLSQQWTTTTRTADDTQGDSGEEEREEAVPSPCASFPPMTFPRCDLKDEGGADSDTEEVGKASPSPAQKSTDLHCVFISGGSGGARAMSSAPRKQVKTEMESEGSGRLADAADGEISVAVAGDVNPQCALLPHRRRRRHISFKLEKDDSEEGGGKAGRGDPAADPAGNARKLANPATAPLLFTAPPPHPSMTAAEVGEAVAAATARVQAPAEHRLAMRERLEEVLLRRKGERHVLEDMFRSV | soluble
MSLTQAATRPTNDAGQDGGNNSDILVVARQQVLQRGEGLNQDQVLAVLQLPDDRLEELLALAHEVRMRWCGPEVEVEGIISLKTGGCPEDCHFCSQSGLFASPVRSAWLDIPSLVEAAKQTAKSGATEFCIVAAVRGPDERLMAQVAAGIEAIRNEVEINIACSLGMLTAEQVDQLAARGVHRYNHNLETARSFFANVVTTHTWEERWQTLSMVRDAGMEVCCGGILGMGETLQQRAEFAAELAELGPDEVPLNFLNPRPGTPFADLEVMPVGDALKAVAAFRLALPRTMLRFAGGREITLGDLGAKRGILGGINAVIVGNYLTTLGRPAEADLELLDELQMPLKALNASLEGHHHHHH | soluble
MKLNVDGLLVYFPYDYIYPEQFSYMRELKRTLDAKGHGVLEMPSGTGKTVSLLALIMAYQRAYPLEVTKLIYCSRTVPEIEKVIEELRKLLNFYEKQEGEKLPFLGLALSSRKNLCIHPEVTPLRFGKDVDGKCHSLTASYVRAQYQHDTSLPHCRFYEEFDAHGREVPLPAGIYNLDDLKALGRRQGWCPYFLARYSILHANVVVYSYHYLLDPKIADLVSKELARKAVVVFDEAHNIDNVCIDSMSVNLTRRTLDRCQGNLETLQKTVLRIKETDEQRLRDEYRRLVEGLREASAARETDAHLANPVLPDEVLQEAVPGSIRTAEHFLGFLRRLLEYVKWRLRVQHVVQESPPAFLSGLAQRVCIQRKPLRFCAERLRSLLHTLEITDLADFSPLTLLANFATLVSTYAKGFTIIIEPFDDRTPTIANPILHFSCMDASLAIKPVFERFQSVIITSGTLSPLDIYPKILDFHPVTMATFTMTLARVCLCPMIIGRGNDQVAISSKFETREDIAVIRNYGNLLLEMSAVVPDGIVAFFTSYQYMESTVASWYEQGILENIQRNKLLFIETQDGAETSVALEKYQEACENGRGAILLSVARGKVSEGIDFVHHYGRAVIMFGVPYVYTQSRILKARLEYLRDQFQIRENDFLTFDAMRHAAQCVGRAIRGKTDYGLMVFADKRFARGDKRGKLPRWIQEHLTDANLNLTVDEGVQVAKYFLRQMAQPFHREDQLGLSLLSLEQLESEETLKRIEQIAQQL | not soluble
MAVHTDPFKKYLYKIGNRTSGSDKHIRKFKTFLTISAYSNILVISMIIDQLRIQKNIPDEEFDAIYPFEIRELSERHWTSVFVAKTAADFLCNQRPVKVLDIGSGAGKFCFVGAALHPSSQFHGIDIRENFIQLSNNLKEQYAVANVSFFQQDALEMDLTGYGGIYFFNSFQEKIDPTSVIDHNSKVSVEQYIQYTNHIFNELNKVPAGTKLVTYYSEDFCVPGSFRLLATHFNGELKFYLKEMEPDESDEQLNQQDISEHIDRHTFLSE | not soluble
SNRIYTLFLQRNPDFKGGVSIAGHSLGSLILFDILTNQKDSLGDIDSEKDSLNIVMDQGDTPTLEEDLKKLQLSEFFDIFEKEKVDKEALALCTDRDLQEIGIPLGPRKKILNYFSTRKNSMGIKRPAPQPASGANIPKESEFCSSSNTRNGDYLDVGIGQVSVKYPRLIYKPEIFFAFGSPIGMFLTVRGLKRIDPNYRFPTCKGFFNIYHPFDPVAYRIEPMVVPGVEFEPMLIPHHKGRKRMHLELREGLTRMSMDLKNNLLGSLRMAWKSFTRAPYPALQASETPEETEAEPESTSEKPSDVNTEETSVAVKEEVLPINVGMLNGGQRIDYVLQEKPIESFNEYLFALQSHLCYWESEDTVLLVLKEIYQTQGIFLDQPLQ | soluble
MGSDKIHHHHHHMSQDTILLIWDRIGDYHLSRVKACEKLLGAPVFTADLAGTDNLYKWDSIAKTTHTVLSSKPAEQSDIWNRFRTFRRIIKTHSIAVVAMPYGRTEYHIFLLYARLKGIRTIIFSESWYSRGKLKDFLKSLLLKSLGNYFFVSGKRAFDHFTKNYKINPEKIETGYSVVDNNHFQRRLFTEKKYVLTIARYSEEKNLSFLIDSYAKSVISNTYNLMLIGEGPLRPALQSQIDILGLSDRVQLAGWVPYAALPKAYAEAVVFVLPSSFEPWGLVVNEAMSAGLPILVSDACGCMPELVAEGVNGWSFNSNTQQELIERLNAFAALSEKGIEITGKNSMQLIRNYTPDTWAGSIARLAQAGR | not soluble
MLKIIQGALDTRELLKAYQEEACAKNFGAFCVFVGIVRKEDNIQGLSFDIYEALLKTWFEKWHHKAKDLGVVLKMAHSLGDVLIGQSSFLCVSMGKNRKNALELYENFIEDFKHNAPIWKYDLIHNKRIYAKERSHPLKGSGLLALEHHHHHH | soluble
